# Measured values from patent US20090099029A1, “Methods and substrates for conducting assays” (Invitrogen Corporation, priority 2005, published 2009).
# Assays:
# 39 kinases (Table 4) = details: known general specificities of the inhibitors; cited from earlier work
# [1] = test system: kinases of Table 6 on Myelin Basic Protein (MBP); experiment: Kinase assay using MBP substrate, ProQ Diamond stain (Table 6); assay type: biochemical; details: kinase printed on MBP-coated slide; 20 uM ATP, 30° C.; ProQ Diamond Microarray Stain; graded Strong/Weak/Negative
# Description: In this illustrative example, four-well slides were designed with a hydrophobic mask surrounding 4-wells of aldehyde- or epoxy-coated glass (smooth or ES grade; Erie Scientific (Portsmouth, N.H.)). […] Bovine, dephosphorylated, Myelin Basic Protein (MBP) was purchased from Upstate Biotechnology (#13-110). MBP was diluted to 1 mg/ml in PBS, applied to the slide surface, covered with a coverslip, and left overnight at 4° C. to coat the slide with the MBP. Slides were washed 3 times with water and spun dry before printing.
# Kinases were purchased from Panvera (Invitrogen, Carlsbad, Calif.), diluted in printing buffer (50 mM Tris pH 7.5, 25% glyercol, 0.05% TritonX-100, 2 mM DTT) and deposited using a GeneMachine OmniGrid100. Slides were stored at −20° C.
# Reactions were performed following removal of the slide from the freezer. Reaction buffer (20 mM HEPES pH 7.5, 4 mM MgCl2, 2 mM DTT, 20 uM ATP, 5% DMSO) was added with or without inhibitor, a coverslip applied, and the slide placed at 30° C. for the appropriate reaction time. The slide was washed with water to stop the reaction (3 times) and spun dry. ProQ Diamond Microarray Stain (Invitrogen #P33706) was applied, covered with a coverslip, and the slide was incubated in the dark at room temperature for 30 minutes. The slide was destained and washed three times with water, and spun dry.
compound,measurement,setting,value
Oc1ccc(-c2nc(-c3ccncc3)c(-c3ccc(F)cc3)[nH]2)cc1 [SB 202190],General Specificity,39 kinases (Table 4),Serine/threonine
ABL1,MBP Kinase Activity,[1],Weak
ADRBK1(GRK2),MBP Kinase Activity,[1],Negative
AKT1,MBP Kinase Activity,[1],Strong
BLK,MBP Kinase Activity,[1],Weak
CDK5/p35,MBP Kinase Activity,[1],Strong
CHEK2,MBP Kinase Activity,[1],Strong
CLK1,MBP Kinase Activity,[1],Strong
CLK3,MBP Kinase Activity,[1],Strong
CLK4,MBP Kinase Activity,[1],Negative
CSNK1E(CK1eps),MBP Kinase Activity,[1],Negative
CSNK1G1(CK1gamma1),MBP Kinase Activity,[1],Negative
CSNK1G2,MBP Kinase Activity,[1],Negative
CSNK1G3,MBP Kinase Activity,[1],Weak
CSNK2A1(CK2alpha1),MBP Kinase Activity,[1],Strong
EPHA7,MBP Kinase Activity,[1],Weak
ERBB2,MBP Kinase Activity,[1],Negative
FGFR1,MBP Kinase Activity,[1],Strong
FGR,MBP Kinase Activity,[1],Weak
FYN,MBP Kinase Activity,[1],Strong
GRK5,MBP Kinase Activity,[1],Negative
GSK3B,MBP Kinase Activity,[1],Negative
HCK,MBP Kinase Activity,[1],Strong
IKBKB,MBP Kinase Activity,[1],Weak
INSR,MBP Kinase Activity,[1],Strong
KDR(VEGFR2),MBP Kinase Activity,[1],Strong
LCK,MBP Kinase Activity,[1],Strong
LYNA,MBP Kinase Activity,[1],Weak
MAP2K1(MEK1),MBP Kinase Activity,[1],Negative
MAP2K2(MEK2),MBP Kinase Activity,[1],Negative
MAP4K5(KHS1),MBP Kinase Activity,[1],Negative
MAPK1(ERK2),MBP Kinase Activity,[1],Strong
MAPK3(ERK1),MBP Kinase Activity,[1],Strong
MAPKAPK2,MBP Kinase Activity,[1],Strong
MLCK,MBP Kinase Activity,[1],Negative
MST4,MBP Kinase Activity,[1],Negative
NEK6,MBP Kinase Activity,[1],Negative
NEK7,MBP Kinase Activity,[1],Negative
NTRK1,MBP Kinase Activity,[1],Strong
NTRK2,MBP Kinase Activity,[1],Strong
NTRK3,MBP Kinase Activity,[1],Strong
PHKG1,MBP Kinase Activity,[1],Negative
PIM1,MBP Kinase Activity,[1],Strong
PIM2,MBP Kinase Activity,[1],Weak
PKN1(PRK1),MBP Kinase Activity,[1],Strong
PLK1,MBP Kinase Activity,[1],Negative
PRKCA,MBP Kinase Activity,[1],Strong
PRKCB1,MBP Kinase Activity,[1],Strong
PRKCB2,MBP Kinase Activity,[1],Strong
PRKCD,MBP Kinase Activity,[1],Strong
PRKCG,MBP Kinase Activity,[1],Strong
PRKCI,MBP Kinase Activity,[1],Strong
PRKCQ,MBP Kinase Activity,[1],Strong
PTK6(BRK),MBP Kinase Activity,[1],Strong
RPS6KA3(RSK2),MBP Kinase Activity,[1],Strong
RPS6KA5(MSK1),MBP Kinase Activity,[1],Weak
STK6(AuroraA),MBP Kinase Activity,[1],Weak
STK24(MST3),MBP Kinase Activity,[1],Weak
STK25(YSK1),MBP Kinase Activity,[1],Strong
TBK1,MBP Kinase Activity,[1],Strong
WEE1,MBP Kinase Activity,[1],Negative
YES1,MBP Kinase Activity,[1],Weak
